Test [1] has as its target Trypsin (Homo sapiens, UniProt P07477). Kind of test: Trypsin inhibition assay, release of p-nitroaniline from N-benzoyl-D-arginine-p-nitroaniline. The class given is biochemical. The conditions noted are these: HPLC peaks of the purified inhibitor. Here is the method: All 8 oligonucleotides encoding either the phoA or ompA fusions were mixed together and treated with ligase. […] The ligated constructs were then ligated into the NdeI-HindIII sites of the vector pTRP233. The ligated vectors were transfected into E. coli strain MC1061 and Amp^R colonies selected. […] Miniprep DNA was used to transfect strains W3110 and JE5505. Small scale cultures of each of the three strains were grown and induced with IAA overnight. Culture supernatants were examined for trypsin inhibitory activity. Trypsin is assayed for its ability to hydrolyze the synthetic substrate N-benzoyl-D-arginine-p-nitroaniline to release p-nitroaniline (pNA). The release of pNA as a function of time is easily monitored in a spectrophotomer and can be quantitated to measure trypsin activity. The inhibitor is detected in this assay by virtue of its ability to bind to trypsin and prevent hydrolysis of the substrate by trypsin. Inhibitory activity was detected in the culture medium for both ompA and phoA constructs in JE5505 but not W3110 or MC1061. Expression levels appeared to be higher with the phoA construct and so only this construct was used for subsequent experiments.

The target in test [2] is T1, Papain (Carica papaya, UniProt P00784).
T1 sequence (P00784 134-345): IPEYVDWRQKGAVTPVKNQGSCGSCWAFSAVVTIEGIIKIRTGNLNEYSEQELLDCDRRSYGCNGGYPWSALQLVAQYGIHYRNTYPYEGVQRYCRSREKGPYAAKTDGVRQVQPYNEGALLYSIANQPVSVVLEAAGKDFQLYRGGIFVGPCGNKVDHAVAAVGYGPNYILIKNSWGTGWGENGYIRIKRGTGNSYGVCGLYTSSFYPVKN
As to the kind of experiment: Protease inhibition, fluorogenic MCA substrate: papain. It is filed as biochemical. From the text:
(§1) The effects of A4 inhibitor on serine- and thiol- proteases were examined as follows: trypsin (17,000 units/mg from porcine pancreas), factor Xa and β-thrombin (gifts from Dr. Iwanagu, Kyushu University, Fukuoka, Japan), tryptase and chymase (both from rat peritoneal mast cells purified as described in Kido et al., Arch Biochem Biophys 239:436-443 (1985)), α-chymotrypsin (0.75 U/mg from bovine pancreas), elastase (33 U/mg from porcine pancreas), papain, cathepsin B (from rat liver purified as described in Towatari et al., Eur J Biochem 102:279-289 (1979)), plasmin (0.16 U/mg from human plasma), urokinase (0.75 U/mg from human kidney cells, Sigma Chemical Co.), tissue kallikrein (50 U/mg from porcine pancreas) or plasma kallikrein (9.4 U/mg from human plasma) was preincubated with various concentrations of the inhibitor in a total volume of 1.5 ml of buffer containing bovine serum albumin (0.1 mg/ml). […] The amount of 7-amino-4-methylcoumarin liberated from the substrates was determined fluorometrically with excitation and emission wavelengths of 380 nm and 460 nm, respectively, in a Hitachi fluorescence spectrophotometer, 650-10MS model, as reported in Kido et al. (1988), supra. Protein concentration was determined with bicinchoninic acid protein assay reagent as described by Smith et al., Anal. Biochem. 150:76-85 (1985). […]

Test [3] concerns the target T2, Plasmin (Homo sapiens, UniProt P00747).
T2 construct: plasmin (0.16 U/mg from human plasma); from tissue; host or cells: human plasma
As to the kind of experiment: Protease inhibition, fluorogenic MCA substrate: plasmin. It is filed as biochemical.
Excerpt: as §1

The test system of test [4] is Tryptase M. Kind of test: Protease inhibition, fluorogenic MCA substrate: tryptase M. It is filed as biochemical, rat.
Excerpt: as §1

The target in test [5] is T3, trypsin (Sus scrofa, UniProt P00761).
T3 construct: trypsin (17,000 units/mg from porcine pancreas); from tissue; host or cells: porcine pancreas
T3 sequence (P00761 9-231): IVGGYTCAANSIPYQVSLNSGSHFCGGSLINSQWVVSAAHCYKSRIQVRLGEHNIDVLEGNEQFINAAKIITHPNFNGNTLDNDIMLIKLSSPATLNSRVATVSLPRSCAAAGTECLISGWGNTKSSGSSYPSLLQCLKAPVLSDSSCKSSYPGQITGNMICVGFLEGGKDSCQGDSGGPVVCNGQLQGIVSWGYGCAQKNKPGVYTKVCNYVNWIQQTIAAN
As to the kind of experiment: Protease inhibition, fluorogenic MCA substrate: trypsin. It is filed as biochemical, porcine. An excerpt:
The effects of A4 inhibitor on serine- and thiol- proteases were examined as follows: trypsin (17,000 units/mg from porcine pancreas), factor Xa and β-thrombin (gifts from Dr. Iwanagu, Kyushu University, Fukuoka, Japan), tryptase and chymase (both from rat peritoneal mast cells purified as described in Kido et al., Arch Biochem Biophys 239:436-443 (1985)), α-chymotrypsin (0.75 U/mg from bovine pancreas), elastase (33 U/mg from porcine pancreas), papain, cathepsin B (from rat liver purified as described in Towatari et al., Eur J Biochem 102:279-289 (1979)), plasmin (0.16 U/mg from human plasma), urokinase (0.75 U/mg from human kidney cells, Sigma Chemical Co.), tissue kallikrein (50 U/mg from porcine pancreas) or plasma kallikrein (9.4 U/mg from human plasma) was preincubated with various concentrations of the inhibitor in a total volume of 1.5 ml of buffer containing bovine serum albumin (0.1 mg/ml). The buffers used were as follows: 0.1 M Tris-HCl, pH 7.5, for trypsin, plasmin and urokinase; 0.1 M Tris-HCl, pH 8.0, for chymase and α-chymotrypsin; 0.1 M Tris-HCl, pH 8.0, containing 10 mM CaCl2 for factor Xa and α-thrombin; 0.1 M Tris-HCl, pH 8.5, for tryptase M; 0.1 M Tris-HCl, pH 7.8, for plasma and tissue kallikrein; 0.1 M Tris-HCl, pH 7.0 for elastase; 50 mM acetate, pH 6.0, containing 1 mM EDTA and 4 mM cysteine for papain and cathepsin B. After preincubation for 5 min at 25° C., 7.5 μl of 20 mM concentrations of the fluorogenic substrate shown in Table I were added and the residual activity of each protease was measured in a quartz cuvette maintained thermostatically at 25° C. The amount of 7-amino-4-methylcoumarin liberated from the substrates was determined fluorometrically with excitation and emission wavelengths of 380 nm and 460 nm, respectively, in a Hitachi fluorescence spectrophotometer, 650-10MS model, as reported in Kido et al. (1988), supra. Protein concentration was determined with bicinchoninic acid protein assay reagent as described by Smith et al., Anal. Biochem. 150:76-85 (1985). […]

Test [6] has as its system α-Thrombin. Kind of test: Protease inhibition, fluorogenic MCA substrate: α-thrombin. The class given is biochemical.
Excerpt: as §1

The target in test [7] is Factor Xa. Kind of test: Protease inhibition, fluorogenic MCA substrate: factor Xa. It is filed as biochemical. The conditions noted are these: substrate Boc-Ile-Glu-Gly-Arg-MCA, pH 8.0, 25° C.
Excerpt: as §1

The target in test [8] is T4, Urokinase (Homo sapiens, UniProt P00749).
T4 construct: urokinase (0.75 U/mg from human kidney cells, Sigma Chemical Co.); purchased Sigma Chemical Co; host or cells: human kidney cells
Kind of test: Protease inhibition, fluorogenic MCA substrate: urokinase. The class given is biochemical.
Excerpt: as §1

In test [9] the target is T5, Tissue kallikrein (Sus scrofa, UniProt P00752).
T5 construct: tissue kallikrein (50 U/mg from porcine pancreas); from tissue; host or cells: porcine pancreas
T5 sequence (P00752 8-246): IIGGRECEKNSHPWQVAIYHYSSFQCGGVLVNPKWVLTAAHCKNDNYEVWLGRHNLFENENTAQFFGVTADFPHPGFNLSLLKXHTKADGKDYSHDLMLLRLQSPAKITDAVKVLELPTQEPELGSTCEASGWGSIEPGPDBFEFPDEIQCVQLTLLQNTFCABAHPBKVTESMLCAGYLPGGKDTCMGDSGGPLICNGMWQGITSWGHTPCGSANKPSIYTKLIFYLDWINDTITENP
As to the kind of experiment: Protease inhibition, fluorogenic MCA substrate: tissue kallikrein. The class given is biochemical, porcine.
Excerpt: as §1

The target in test [10] is T6, Chymase (Rattus norvegicus, UniProt P09650).
T6 construct: tryptase and chymase (both from rat peritoneal mast cells purified as described in Kido et al); from tissue; host or cells: rat peritoneal mast cells
T6 sequence (P09650 21-260): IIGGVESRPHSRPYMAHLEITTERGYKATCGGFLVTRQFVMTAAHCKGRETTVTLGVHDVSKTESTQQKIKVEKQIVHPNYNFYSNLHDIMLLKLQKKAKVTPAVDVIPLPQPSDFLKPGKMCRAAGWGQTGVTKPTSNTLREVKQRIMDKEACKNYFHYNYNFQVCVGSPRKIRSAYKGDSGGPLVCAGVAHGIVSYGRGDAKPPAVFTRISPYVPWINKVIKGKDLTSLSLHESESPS
As to the kind of experiment: Protease inhibition, fluorogenic MCA substrate: chymase. It is filed as biochemical.
Excerpt: as §1

Test [11] addresses T7, Plasma kallikrein (Homo sapiens, UniProt P03952).
T7 construct: plasma kallikrein (9.4 U/mg from human plasma); from tissue; host or cells: human plasma
As to the kind of experiment: Protease inhibition, fluorogenic MCA substrate: plasma kallikrein. It is filed as biochemical.
Excerpt: as §1

In test [12] the target is T8, α-chymotrypsin (Bos taurus, UniProt P00766).
T8 construct: α-chymotrypsin (0.75 U/mg from bovine pancreas); from tissue; host or cells: bovine pancreas
Kind of test: Protease inhibition, fluorogenic MCA substrate: α-chymotrypsin. The class given is biochemical, bovine.
Excerpt: as §1

The target in test [13] is T9, Cathepsin B (Rattus norvegicus, UniProt P00787).
T9 construct: cathepsin B (from rat liver purified as described in Towatari et al); from tissue; host or cells: rat liver
T9 sequence (P00787 80-339): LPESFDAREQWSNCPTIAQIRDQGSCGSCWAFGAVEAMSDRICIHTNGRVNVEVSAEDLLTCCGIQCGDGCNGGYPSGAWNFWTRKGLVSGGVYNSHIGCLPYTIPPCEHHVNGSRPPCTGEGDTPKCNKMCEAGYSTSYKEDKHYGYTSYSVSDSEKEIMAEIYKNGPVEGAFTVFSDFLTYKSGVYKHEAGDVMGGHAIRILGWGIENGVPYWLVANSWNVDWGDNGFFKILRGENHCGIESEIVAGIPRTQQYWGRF
Kind of test: Protease inhibition, fluorogenic MCA substrate: cathepsin B. The class given is biochemical.
Excerpt: as §1

Test [14] addresses T10, Elastase (Sus scrofa, UniProt P00772).
T10 construct: elastase (33 U/mg from porcine pancreas); from tissue; host or cells: porcine pancreas
As to the kind of experiment: Protease inhibition, fluorogenic MCA substrate: elastase. The class given is biochemical, porcine.
Excerpt: as §1

Read-outs that look alike come from different tables or passages of the source. Where no end group is shown, it is not given here.

As a reminder, the Ki is the equilibrium dissociation constant of an inhibitor or competing ligand from its target.

T2 sequence (P00747 581-810 limits assumed): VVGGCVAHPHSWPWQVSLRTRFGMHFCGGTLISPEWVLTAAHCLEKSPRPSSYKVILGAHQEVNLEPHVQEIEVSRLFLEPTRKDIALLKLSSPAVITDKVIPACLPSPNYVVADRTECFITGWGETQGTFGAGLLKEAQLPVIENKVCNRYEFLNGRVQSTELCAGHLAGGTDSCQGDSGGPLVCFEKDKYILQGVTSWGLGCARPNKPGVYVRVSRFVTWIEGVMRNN
T2 sequence (P00747 97-580 partner limits assumed): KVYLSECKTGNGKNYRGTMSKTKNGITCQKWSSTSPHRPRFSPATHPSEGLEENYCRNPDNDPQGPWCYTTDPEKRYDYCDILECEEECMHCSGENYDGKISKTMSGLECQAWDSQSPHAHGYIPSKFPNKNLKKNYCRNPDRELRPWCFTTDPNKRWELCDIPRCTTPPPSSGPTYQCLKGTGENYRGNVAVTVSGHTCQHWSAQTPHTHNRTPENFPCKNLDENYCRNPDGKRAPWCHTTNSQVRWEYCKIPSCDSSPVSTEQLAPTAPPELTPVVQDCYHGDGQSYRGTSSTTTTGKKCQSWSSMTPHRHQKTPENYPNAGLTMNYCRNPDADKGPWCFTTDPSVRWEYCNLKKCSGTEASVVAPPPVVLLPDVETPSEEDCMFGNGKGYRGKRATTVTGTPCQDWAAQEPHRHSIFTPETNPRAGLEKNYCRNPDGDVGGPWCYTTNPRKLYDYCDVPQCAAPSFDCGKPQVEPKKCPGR
T10 sequence (P00772 27-266): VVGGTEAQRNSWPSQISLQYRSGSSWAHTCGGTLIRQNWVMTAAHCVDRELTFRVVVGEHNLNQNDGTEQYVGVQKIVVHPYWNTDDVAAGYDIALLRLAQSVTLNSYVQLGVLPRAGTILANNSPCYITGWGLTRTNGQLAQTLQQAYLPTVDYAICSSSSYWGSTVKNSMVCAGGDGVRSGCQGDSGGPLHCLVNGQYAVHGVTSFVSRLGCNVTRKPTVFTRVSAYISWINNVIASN
T7 sequence (P03952 20-638): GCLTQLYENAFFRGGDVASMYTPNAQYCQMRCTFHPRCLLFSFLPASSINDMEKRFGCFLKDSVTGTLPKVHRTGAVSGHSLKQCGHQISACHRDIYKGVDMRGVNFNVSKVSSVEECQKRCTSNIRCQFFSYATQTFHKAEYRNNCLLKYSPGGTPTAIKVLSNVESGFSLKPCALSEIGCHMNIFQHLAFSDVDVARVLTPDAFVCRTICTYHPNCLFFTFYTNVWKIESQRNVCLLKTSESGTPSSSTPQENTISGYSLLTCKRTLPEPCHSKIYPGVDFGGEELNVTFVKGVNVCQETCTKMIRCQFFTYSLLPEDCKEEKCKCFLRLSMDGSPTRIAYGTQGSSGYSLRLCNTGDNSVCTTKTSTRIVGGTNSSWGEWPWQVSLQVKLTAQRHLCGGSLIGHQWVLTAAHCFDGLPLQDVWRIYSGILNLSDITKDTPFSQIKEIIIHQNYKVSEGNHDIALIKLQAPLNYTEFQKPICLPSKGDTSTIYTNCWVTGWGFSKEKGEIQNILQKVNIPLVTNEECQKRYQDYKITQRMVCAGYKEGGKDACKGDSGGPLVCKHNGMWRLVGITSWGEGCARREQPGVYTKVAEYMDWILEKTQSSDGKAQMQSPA

As for “peak 4: major HPLC peak of the purified inhibitor; full length A4i with 3 disulfide bridges (EVCSEQAETGPCRAMISRWYFDVTEGKCAPFFYGGCGGNRNNFDTEEYCMAVCGSAM; disulfide (positions not given here); UniProt P05067 289-345, looked up, fragment)”, in test [1], the “activity in the trypsin inhibition assay” value was “active”.

Turning to “A4i: 57 amino acid Kunitz-type serine protease inhibitor encoded by the 168 bp insert of λAPCP168i4”, the “inhibition of papain (in words)” value in test [2] is recorded as “did not inhibit”. Besides, the Ki in test [2] (Papain, substrate Z-Phe-Arg-MCA, pH 6.0, 25° C.) was above 1000 nM; in [3] (Plasmin, substrate Boc-Val-Leu-Lys-MCA, pH 7.5, 25° C.), 0.075 nM; in test [4] (tryptase, unit inferred, read-out: dissociation constant Ki), 0.22 nM; in [5] (Trypsin, substrate Boc-Phe-Ser-Arg-MCA, pH 7.5, 25° C., read-out: Ki value), 2.7 nM; in test [5] (pancreatic trypsin, read-out: Ki), 3 nM; in test [6] (α-Thrombin, substrate Boc-Val-Pro-Arg-MCA, pH 8.0, 25° C.), above 1000 nM. Also, the Ki is 257 nM in test [7]; above 1000 nM in test [8] (Urokinase, substrate Glt-Gly-Arg-MCA, pH 7.5, 25° C.); 28.4 nM in test [9] (Tissue kallikrein, substrate Pro-Phe-Arg-MCA, pH 7.8, 25° C.); above 1000 nM in test [10] (Chymase, substrate Suc-Leu-Leu-Val-Tyr-MCA, pH 8.0, 25° C.); 73.9 nM in test [11] (Plasma kallikrein, substrate Z-Phe-Arg-MCA, pH 7.8, 25° C.); 8.5 nM in [12] (α-chymotrypsin). Further, the Ki in [13] (Cathepsin B, substrate Z-Phe-Arg-MCA, pH 6.0, 25° C.) is above 1000 nM; in test [14] (Elastase, substrate Suc-Ala-Pro-Ala-MCA, pH 7.0, 25° C.) it was above 1000 nM. Moreover, in [3], the “inhibition of plasmin (in words)” value is “strongly inhibits”. Besides, the “inhibition of tryptase (in words)” value in test [4] was “strongly inhibits”. Besides, in [5], the “inhibition of pancreatic trypsin (in words)” value is listed as “inhibits”. Further, the “inhibition of α-thrombin (in words)” value in test [6] is listed as “did not inhibit”. In addition, the “inhibition of urokinase (in words)” value in [8] was “did not inhibit”. In addition, in test [9], the “inhibition of tissue kallikrein (in words)” value was “inhibits”. Moreover, the “inhibition of chymase (in words)” value in test [10] is on record as “did not inhibit”. Further, in test [11], the “inhibition of serum kallikrein (in words)” value was “inhibits”. Moreover, the “inhibition of α-chymotrypsin (in words)” value in [12] is “inhibits”. In addition, the “inhibition of cathepsin B (in words)” value in test [13] was “did not inhibit”. In addition, the “inhibition of pancreatic elastase (in words)” value in test [14] is “did not inhibit”.

These data come from patent publication US5187153A, “Methods of treatment using Alzheimer's amyloid polypeptide derivatives” (Scios Nova Inc., priority 1990, dated 1993).
